Target: wild-type desmin, human (human) (UniProt P17661)
Assay: co-sedimentation

Q: Which percent of desmin pelleted at 22 °C does the source give for “wild-type desmin, human (from UniProt P17661 1-470) (natural protein)” here?
A: 83.8%

Q: And the percent of desmin pelleted at 37 °C?
A: 93.3%

Q: And the percent of desmin pelleted at 44 °C?
A: 94.3%
